# Results published in the supplement of paper PMC10126150.
# ± gives the standard deviation of the averaged measurements.
# System: ATP
# Assay: switch fluorescence ratio, 500 uM ATP over buffer (Cy3 cluster intensity, sum of 5 cycles each) (fold (ratio)); higher = stronger signal-on switching upon ATP binding; sequences stand for … in TCGTCGGCAGCGTCAGATGTGTATAAGAGACAGTTTTTTTTTTTTTTTTTTTTTTTTT…TC
# Conditions: aptamer strand: ATP DNA aptamer (quencher-CACCTGGGGGAGTATTGCGGAGGAAGG + anchor), 100 nM annealed; ATP concentration: 500 uM
# In short: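 For every switch-domain sequence, the fluorescence ratio is the mean of per-cluster values, each being summed target-cycle Cy3 intensity over summed buffer-cycle Cy3 intensity. Clusters outside 100-1000 RFU were excluded. On a modified Illumina MiSeq flow-cell, the Cy3-labelled switching-strand clusters were annealed to 100 nM quencher-labelled ATP aptamer, imaged in selection buffer and then after 15 min with 500 uM ATP at 22 °C. Five such cycles were run, with NaOH stripping and re-annealing between them.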
# 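Further: ATP exposure 15 min at 22 °C before imaging.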
row,Sequence,switch fluorescence ratio
1,TATGATGCAT,0.991 ± 0.028
2,TATGATGTCG,1.01 ± 0.027
3,TATGATTTAA,1.01 ± 0.016
4,TATGCAGTCA,1.01 ± 0.029
5,TATGCCTTCG,1.09 ± 0.05
6,TATGCCTTTG,0.987 ± 0.033
7,TATGCGGACA,1.04 ± 0.027
8,TATGCGGTCC,1.02 ± 0.019
9,TATGCTAAAA,0.965 ± 0.038
10,TATGCTGCTG,1.01 ± 0.036
11,TATGCTTATA,0.98 ± 0.014
12,TATGGAAGCA,0.994 ± 0.014
13,TATGGACATT,1.03 ± 0.011
14,TATGGAGCGT,1.04 ± 0.018
15,TATGGAGGCT,1.07 ± 0.015
16,TATGGATAGT,0.998 ± 0.017
17,TATGGATTGC,0.988 ± 0.032
18,TATGGCATCT,1 ± 0.051
19,TATGGCCCGG,1.02 ± 0.0014
20,TATGGCGGTC,0.92422 ± 0.00078
21,TATGGCGGTG,0.989 ± 0.021
22,TATGGGAGTT,1 ± 0.01
23,TATGGGCAGT,1.007 ± 0.0017
24,TATGGGCGTC,0.999 ± 0.011
25,TATGGGGCAG,0.99 ± 0.0093

row,Sequence,switch fluorescence ratio
1,TATGGGGGA,1.01 ± 0.069
2,TATGGGGGCT,1.04 ± 0.012
3,TATGGGTGCT,1.06 ± 0.046
4,TATGGGTTAA,1.01 ± 0.022
5,TATGGGTTGG,1.02 ± 0.04
6,TATGGTCGCT,1.03 ± 0.041
7,TATGGTGCG,0.984 ± 0.011
8,TATGGTGCTT,1.01 ± 0.032
9,TATGGTGTGC,1.02 ± 0.021
10,TATGGTTTAC,1 ± 0.017
11,TATGGTTTTT,0.996 ± 0.015
12,TATGTACACT,1.06 ± 0.053
13,TATGTAGGGG,1.09 ± 0.14
14,TATGTAGGTA,0.994 ± 0.047
15,TATGTATCGC,1.13 ± 0.15
16,TATGTCAGCT,1.01 ± 0.032
17,TATGTCTACA,0.9859 ± 0.0075
18,TATGTGAACT,0.9986 ± 0.0019
19,TATGTGAAGG,0.995 ± 0.015
20,TATGTGCAGG,0.995 ± 0.015
21,TATGTGCTGT,0.983 ± 0.011
22,TATGTGGACA,0.9964 ± 0.0047
23,TATGTGGAGG,0.97262 ± 0.00028
24,TATGTGGGCT,0.987 ± 0.021
25,TATGTGGGTC,1.02 ± 0.035

row,Sequence,switch fluorescence ratio
1,TATGTGTAAC,0.978 ± 0.02
2,TATGTGTGTT,0.9873 ± 0.0062
3,TATGTTAAC,1.02 ± 0.012
4,TATGTTAATG,0.999 ± 0.016
5,TATGTTAGTG,1.01 ± 0.042
6,TATGTTATGT,1.01 ± 0.052
7,TATGTTATTA,0.984 ± 0.039
8,TATGTTTGGG,0.986 ± 0.034
9,TATGTTTTGT,1.02 ± 0.041
10,TATGTTTTTT,0.997 ± 0.031
11,TATTAAAAAT,1.03 ± 0.047
12,TATTAAACTC,1.02 ± 0.017
13,TATTAACGTT,1.015 ± 0.0039
14,TATTAAGAGG,0.98 ± 0.018
15,TATTAAGCGA,1.05 ± 0.037
16,TATTAAGGGT,0.979 ± 0.029
17,TATTAAGGTT,0.978 ± 0.021
18,TATTAAGTGG,1.05 ± 0.071
19,TATTAATCGG,0.97 ± 0.056
20,TATTAATGAT,1.007 ± 0.01
21,TATTAATTC,0.972 ± 0.056
22,TATTAGAACT,1.017 ± 0.0064
23,TATTAGCTAT,0.998 ± 0.037
24,TATTAGGTA,1.01 ± 0.017
25,TATTAGTTTG,0.997 ± 0.024

row,Sequence,switch fluorescence ratio
1,TATTATATTT,1 ± 0.0046
2,TATTATGGGG,1.02 ± 0.034
3,TATTCAATTT,1 ± 0.021
4,TATTCAGGGT,1.01 ± 0.028
5,TATTCATGGT,1.025 ± 0.0057
6,TATTCCGTCC,1.1 ± 0.049
7,TATTCGATTC,1.04 ± 0.017
8,TATTCGGCTG,0.997 ± 0.029
9,TATTCTACCA,1.01 ± 0.011
10,TATTGAATGG,0.972 ± 0.03
11,TATTGAGGGA,1.017 ± 0.0031
12,TATTGATAAA,0.991 ± 0.058
13,TATTGATGGT,0.994 ± 0.019
14,TATTGCGATT,0.994 ± 0.018
15,TATTGGAGGT,0.981 ± 0.021
16,TATTGGGCTT,0.989 ± 0.018
17,TATTGGGGAA,0.978 ± 0.01
18,TATTGGGGGG,0.999 ± 0.025
19,TATTGGGTTC,0.965 ± 0.011
20,TATTGGTCAA,0.962 ± 0.017
21,TATTGGTGGG,0.9663 ± 0.008
22,TATTGTAGCT,1.01 ± 0.044
23,TATTGTTGGG,0.976 ± 0.03
24,TATTTAGGAA,0.9498 ± 0.0078
25,TATTTAGGGG,0.973 ± 0.022

row,Sequence,switch fluorescence ratio
1,TATTTAGTTT,1.01 ± 0.023
2,TATTTCCGGG,1.012 ± 0.0045
3,TATTTCTTTT,1.05 ± 0.11
4,TATTTGAATC,1.15 ± 0.24
5,TATTTGACG,1.02 ± 0.035
6,TATTTGAGCA,0.995 ± 0.026
7,TATTTGGAGG,0.992 ± 0.0044
8,TATTTGGCAT,1.036 ± 0.0029
9,TATTTGGGTC,0.98285 ± 0.00046
10,TATTTGGTTT,1 ± 0.017
11,TATTTGTACT,1 ± 0.013
12,TATTTGTGGG,0.9845 ± 0.0083
13,TATTTGTGTC,0.982 ± 0.057
14,TATTTGTGTG,0.998 ± 0.029
15,TATTTTAAAA,0.986 ± 0.022
16,TATTTTAGC,0.971 ± 0.034
17,TATTTTATTG,1.03 ± 0.02
18,TATTTTGAAG,1.07 ± 0.13
19,TATTTTGACG,0.9151 ± 0.0046
20,TATTTTGCCT,1.036 ± 0.01
21,TATTTTGCGT,1.002 ± 0.0024
22,TATTTTGGTT,0.999 ± 0.015
23,TATTTTGTAT,1 ± 0.019
24,TATTTTGTGG,0.984 ± 0.026
25,TATTTTTCTT,0.975 ± 0.041

row,Sequence,switch fluorescence ratio
1,TATTTTTGGA,0.981 ± 0.043
2,TATTTTTGGC,1.01 ± 0.018
3,TATTTTTGGG,0.99 ± 0.023
4,TATTTTTGTT,1.05 ± 0.074
5,TATTTTTTCT,0.994 ± 0.045
6,TATTTTTTTT,1.01 ± 0.043
7,TCAAAACTTG,1.01 ± 0.057
8,TCAAAAGTCG,1.03 ± 0.012
9,TCAAAAGTTG,1.04 ± 0.044
10,TCAAAATATT,1.006 ± 0.0065
11,TCAAAATGCT,1.09 ± 0.058
12,TCAAAATGTG,0.958 ± 0.015
13,TCAAACGCGT,1.01 ± 0.037
14,TCAAACGGGG,1 ± 0.045
15,TCAAACGTAG,0.9793 ± 0.0085
16,TCAAACTGTT,1.08 ± 0.025
17,TCAAAGAGGT,0.98204 ± 0.00058
18,TCAAAGGGTC,1 ± 0.088
19,TCAAAGTGTA,0.968 ± 0.064
20,TCAAATAGTT,0.997 ± 0.0026
21,TCAAATGGGC,0.9965 ± 0.0031
22,TCAACAGTTG,0.998 ± 0.011
23,TCAACCAATG,1.04 ± 0.0039
24,TCAACCGGGG,1.079 ± 0.0021
25,TCAACCGTTT,1.02 ± 0.065

row,Sequence,switch fluorescence ratio
1,TCAACGCAGG,1.19 ± 0.065
2,TCAACTATGG,0.989 ± 0.075
3,TCAACTGGAT,0.9502 ± 0.0053
4,TCAAGCACTT,1.25 ± 0.028
5,TCAAGCCCAT,1 ± 0.045
6,TCAAGCTCAT,0.974 ± 0.023
7,TCAAGGCACC,1.1 ± 0.023
8,TCAAGGTTCT,0.998 ± 0.014
9,TCAAGTGAGG,1.01 ± 0.011
10,TCAAGTGGCC,1.02 ± 0.037
11,TCAAGTTTGG,1.02 ± 0.018
12,TCAATAATCG,1.01 ± 0.055
13,TCAATAGAAT,1.06 ± 0.14
14,TCAATAGAGT,1.039 ± 0.0024
15,TCAATCTCCT,1.03 ± 0.088
16,TCAATGATTT,0.969 ± 0.022
17,TCAATGGGGA,0.998 ± 0.013
18,TCAATGTAGT,1 ± 0.058
19,TCAATTAACT,1.03 ± 0.013
20,TCAATTCGAG,0.9884 ± 0.009
21,TCAATTGTAA,1.05 ± 0.051
22,TCAATTTTGC,1.02 ± 0.034
23,TCAATTTTTT,0.993 ± 0.016
24,TCACAGCCTG,0.9973 ± 0.0019
25,TCACAGGGGG,1.14 ± 0.12

row,Sequence,switch fluorescence ratio
1,TCACATGGGA,0.976 ± 0.011
2,TCACCAGATT,1.017 ± 0.008
3,TCACCATTCA,1.052 ± 0.0059
4,TCACGTGGTA,1.02 ± 0.021
5,TCACTATACT,1.41 ± 0.085
6,TCACTGGGTA,0.995 ± 0.014
7,TCACTGGTTC,1.032 ± 0.0038
8,TCACTGTCGC,1.13 ± 0.07
9,TCACTGTTTC,1.011 ± 0.0076
10,TCACTTCAAT,1.033 ± 0.0099
11,TCACTTTGCG,0.984 ± 0.032
12,TCAGAAATAG,1.24 ± 0.15
13,TCAGAGGCTG,0.988 ± 0.015
14,TCAGAGGGGG,0.992 ± 0.036
15,TCAGAGTGTG,0.989 ± 0.019
16,TCAGATAAAT,1.27 ± 0.35
17,TCAGATTGCA,1.007 ± 0.0025
18,TCAGCGAAAT,0.99 ± 0.016
19,TCAGCGACTT,1.01 ± 0.031
20,TCAGCGGGGA,1.001 ± 0.0066
21,TCAGCGTACG,1.01 ± 0.014
22,TCAGCGTGTG,1.0181 ± 0.00046
23,TCAGGACTCG,0.982 ± 0.035
24,TCAGGATATG,0.988 ± 0.035
25,TCAGGCGTTT,0.996 ± 0.024
